Measurements as given in the DeepSol protein solubility set.

Experiment: soluble on expression in E. coli; label from the status in PepcDB or PDB records

Row | Sequence | soluble on expression in E. coli
1 | MHPMNILLKLPLKIPLMIIEKAREILEKHPLCNHCLGRMFAKLGKGTNEERGKAIRLILSMELNREVKEPENCELCQGIFRRMNELLDLVRNAVEDYEFQTFQIGSRFPKDILEKEKKIWEEFGITTGEPINREFNRELGKLFAKVTGKIPNRERPDIVIIVEPFSSKVELQVNPIYVAGRYRKLVRGIPQTPAPGFEESIATIICRVFKKNFRGKCIFKGAGREDVDVRTLGRGRPFVVEIKKPRKRKVDLKLIEEEINSSGKVEVLELKFITPEESEKILTARHKKIYEALVYVKDGVSAEEVEKVVKSLKGSEIKQRTPRRVLNSRADIVRVRRVYNVSGEYIDEHHFKLKLVTDGGLYIKELISGDKGRTKPSVSEILGKEAWCEILDVLDVLDGDENVEGDSLEHHHHHH | not soluble
2 | MCMYEADVRINGTLIWYYFICKREVWLISHGITADQEDENIEIGRFIHENAYSREKKEIDFDNFKVDVADSIDGKIIVQEVKKSSKFKKSARMQLLFYIYEIKKSGIDARGILLFPEERKREEVVLDEASQKELDSVIKDIFKIVNLEKPPIPEKCKYCRNCAYSELCWA | not soluble
3 | METSIFDDVETRIDNNEIIAQQHAEDLFELYLKIQNAEKDSVIDIRKEASADHEEMLCELRNDLSQVMKMGMVNLSMQIIAQERNNRRKVNQHIINIKSKTEEIDKFFQRAISVLGAPPGYPAKKEEKAKTKNYLIQFGEVLLSISTMVTNLEQSLACYELKEVLMNGMISQIRTQISDFNKVIPNFKRILNSENQEIDPDNYEKFVDMKKRLFAMVNCLHLISEKRGEMNRLIEEKMNLSMPQFQNLQISNGT | not soluble
4 | MGSDKIHHHHHHMSAPRSICLLRLSAIGDTCNAAAVVNAIRQHYPEAEITWVIGKAEAALMAGMDGVNFVVFDKKRGMAAYRNLRRQLQGKRFDALLLMQVALRANLASLCISAKRRIGYDKAKSKELHSLFINERIEPTDKVHVLDNFRQFQKSLGIPLEEPDWNIPVNAEDRGWAKAQLDPNTSKHLIITAAASNTERNWLPDRYAAVADYAASQGFSVYLCGGPADYEKQLAANIQAHAKHSLHNLVGQSSLKQLFALIGEASLVLAPDTGPAHMAVAAGTPVIGLYAHSNPKRTGPYLWQNYVVDAYTPALKQTRGETPEQSRWGQRLKGAELMENITTEQVIDMLDRCIQEQNL | not soluble
5 | MIIYFIGTGGSEGIPVHLCDCNTCNEARKFRFAQRRPSTLAVIGENGEVILFDVGTDIREFLNVPLDAIFLTHWHHDHIYGLYKLRWIARETNLYAPEGHADALILQDPKNLRPKIIKAGEKIRIGDIKVTSVKLNHQIETLGYIIEEDGKRVAILYDTKGLPPETREYLEDISPLRVAIVDATYPPGFVDPYHNNVNEAVEMSIDIAERIVLSHISHKNLPFLKLVNYTRKMWGGKVLVAYDGMVFYV | soluble
6 | LIELIQYTPTTDTVRPEPILIVPAWIMKYYILDLSPENSMVKFLVDQGYTVFMISWRNPSAEDRDLGLDDYRKMGVVDAIGAVQGIVPDQKIHGVGYCLGGTLLSISAATMGRDGGDPFASLSYLASQIDFTEPGELQLFINESQLTFLEDMMWDHGYLDTTQMSGAFQMIGSADLVWSRSLHSYLMGDEPAMFDLLAWNADGTRMPYRMHSEYLRSLYLNNELTEGAFVVEGRPISVTDIRVPVFSVGTVKDHVAPWPSVYKMHLYLDTDLTFVLTSGGHN | not soluble
7 | MAAYKLVLIRHGESAWNLENRFSGWYDADLSPAGHEEAKRGGQALRDAGYEFDICFTSVQKRAIRTLWTVLDAIDQMWLPVVRTWRLNERHYGGLTGLNKAETAAKHGEAQVKIWRRSYDVPPPPMEPDHPFYSNISKDRRYADLTEDQLPSCESLKDTIARALPFWNEEIVPQIKEGKRVLIAAHGNSLRGIVKHLEGLSEEAIMELNLPTGIPIVYELDKNLKPIKPMQFLGDEETVRKAMEAVAAQGKAKK | soluble
8 | MTAAARTPAFYLDLGVPDTVMGRFEMLSVIMILYFRRTKSSGVSGQEIAQEIVDAFFQDIDHSIRELGIGDQGVPKRMKKFAGMFYGRLESYAAALDASDCAALAAALRRNIYPQVDDEAPEMEGLAGWMMETSDALAAQSEETIATGSLTLPLPILEHHHHHH | not soluble
